Where a chain is given by its changes, count along the chain named. In names and notes the source's numbering stands.
Columns and labels:
Biotin-FcγRIIB (human) = Biotin-FcγRIIB (human) (UniProt P31994); assay: NGS of 3T3 display library C2 flow-sorted for FcγRIIB binding
FcγRIIA^131R (human) = FcγRIIA^131R (human) (UniProt P12318); assay: ELISA, coated antibody, biotin-FcγR;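 on Absorbance value: antibody coated at 2 µg/mL at 100 µL per well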
FcγRIIB [1] = biological target: T1, FcγRIIB (human, UniProt P31994 43-217, biotin-labeled); assay: ELISA; relative affinity to FcγRIIB over that to FcγRIIA131R
T1 construct: extracellular domain; Bought protein; also called CD32b
T1 sequence (looked up): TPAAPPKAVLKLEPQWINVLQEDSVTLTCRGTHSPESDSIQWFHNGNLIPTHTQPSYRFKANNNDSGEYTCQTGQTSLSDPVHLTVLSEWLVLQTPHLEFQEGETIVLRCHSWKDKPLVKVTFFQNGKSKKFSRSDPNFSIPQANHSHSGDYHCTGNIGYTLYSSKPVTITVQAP

FcγRI = biological target: T2, FcγRI (human, UniProt P12314 16-292, biotin-labeled); assay: ELISA, coated antibody, biotin-FcγR;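 on Absorbance value: antibody coated at 2 µg/mL at 100 µL per well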
T2 construct: extracellular domain; Bought protein; also called CD64
T2 sequence (P12314 16-292): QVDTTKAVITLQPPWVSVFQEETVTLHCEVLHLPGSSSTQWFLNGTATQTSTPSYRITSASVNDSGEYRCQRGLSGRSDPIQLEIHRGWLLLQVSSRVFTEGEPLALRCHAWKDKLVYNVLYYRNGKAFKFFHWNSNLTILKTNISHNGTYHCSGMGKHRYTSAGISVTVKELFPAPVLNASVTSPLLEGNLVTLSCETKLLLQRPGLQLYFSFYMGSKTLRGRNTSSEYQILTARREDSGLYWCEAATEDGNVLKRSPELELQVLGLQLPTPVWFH

FcγRIIIA^158V = biological target: T3, FcγRIIIA^158V (human, UniProt P08637 17-208, biotin-labeled); assay: ELISA, coated antibody, biotin-FcγR;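 on Absorbance value: antibody coated at 2 µg/mL at 100 µL per well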
T3 construct: extracellular domain; Bought protein; also called RIIIAV; CD16a 158V
T3 sequence (P08637 17-208 F176V): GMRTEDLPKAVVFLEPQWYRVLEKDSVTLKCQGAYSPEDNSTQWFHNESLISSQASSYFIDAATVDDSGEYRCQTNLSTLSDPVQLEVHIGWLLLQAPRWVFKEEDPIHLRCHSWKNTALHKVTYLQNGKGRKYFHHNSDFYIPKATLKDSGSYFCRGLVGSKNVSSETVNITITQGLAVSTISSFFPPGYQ

FcγRIIA^131H = biological target: T4, FcγRIIA^131H (human, UniProt P12318 34-217, biotin-labeled); assay: ELISA, coated antibody, biotin-FcγR;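 on Absorbance value: antibody coated at 2 µg/mL at 100 µL per well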
T4 construct: extracellular domain; Bought protein; also called RIIAH
T4 sequence (looked up): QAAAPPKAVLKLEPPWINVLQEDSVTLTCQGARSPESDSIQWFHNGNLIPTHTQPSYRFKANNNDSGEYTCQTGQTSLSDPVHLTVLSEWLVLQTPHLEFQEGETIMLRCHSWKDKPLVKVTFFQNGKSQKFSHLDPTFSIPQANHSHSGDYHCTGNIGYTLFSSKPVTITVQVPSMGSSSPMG

FcγRIIIA^158F = biological target: T5, FcγRIIIA^158F (human, UniProt P08637 17-208, biotin-labeled); assay: ELISA, coated antibody, biotin-FcγR;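 on Absorbance value: antibody coated at 2 µg/mL at 100 µL per well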
T5 construct: extracellular domain; Bought protein; also called RIIIAF
T5 sequence (P08637 17-208): as the sequence (P08637 17-208 F176V) above, with V160F counted along it

FcγRIIB [2] = biological target: T1, FcγRIIB; assay: ELISA, coated antibody, biotin-FcγR;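 on Absorbance value: antibody coated at 2 µg/mL at 100 µL per well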
Biotin-FcγRIIB [3] = biological target: T6, Biotin-FcγRIIB (human, UniProt P31994 43-217, limits assumed, biotin-labelled); assay: magnetic sorting on biotin-FcγRIIB with unlabelled activating FcγRs, NGS; Library4
T6 construct: Bought, biotin-labelled; used at 1 µg/ml for staining and sorting; also called human FcγRIIB; CD32b
T6 sequence (looked up): T1 sequence (looked up)
Description: 3T3 cells were collected by trypsin digestion, and a single cell suspension was prepared. […] The cells were incubated for 15 minutes on ice and then washed twice with MACS buffer and re-suspended in 100 μl MACS buffer. Twenty-five μl anti-Biotin magnetic beads were added, and the cells were incubated for 15 minutes on ice and then washed once with MACS buffer and re-suspended to 500 μl, and added to the LS column put in the magnetic field. The effluent was collected, washed with 3 mL of MACS buffer and collected; The LS column was then removed out of the magnetic field, and 5 mL of MACS buffer was used to rapidly elute the remaining cells from the sorting column to collect positive cells, which are the high I/A ratio cells.
The high-FcγRIIB-affinity cells obtained from the above flow cytometry sorting are further sorted by magnetic-activated sorting. The cells are incubated with the mixture of Biotin-labeled FcγRIIB and non-labeled activating FcγRs, and then the labeled cells are sorted by anti-Biotin magnetic beads. The enrichment ratios after sorting relative to before sorting are analyzed by NGS.

Biotin-FcγRIIB [4] = biological target: T6, Biotin-FcγRIIB; assay: FACS sorting of displayed Fc library on biotin-FcγRIIB, NGS; reference S267E
Biotin-FcγRIIB [5] = biological target: T6, Biotin-FcγRIIB; assay: FACS sorting of displayed Fc library on biotin-FcγRIIB, NGS

human IgG2 anti-mouse CD40 surface displayed antibody, V234Q/V266L/S267D/H268D/E269D/P271Q
enrichment factor, percentage after 3rd sorting/percentage after 2nd sorting (Biotin-FcγRIIB (human)): 15.4
percentage after 2nd sorting (Biotin-FcγRIIB (human)): 0%
percentage after 3rd sorting (Biotin-FcγRIIB (human)): 0.04%

IgG2 N297A (antibody)
Absorbance value (FcγRIIA^131R (human)): 0.04 A650

B1: wild-type IgG2 anti-human OX40 antibody (antibody)
heavy: QVQLQESGPGLVKPSGTLSLTCAVSGGSISSSIWWSWVRQPPGKGLEWIGEIHHSGNTNCNPSLKSRVTISIDKSKNQFSLKLTSVTAADTAVYYCARAGTGTTLDYWGQGTLVTVSSASTKGPSVFPLAPCSRSTSESTAALGCLVKDYFPEPVTVSWNSGALTSGVHTFPAVLQSSGLYSLSSVVTVPSSNFGTQTYTCNVDHKPSNTKVDKTVERKCCVECPPCPAPPVAGPSVFLFPPKPKDTLMISRTPEVTCVVVDVSHEDPEVQFNWYVDGVEVHNAKTKPREEQFNSTFRVVSVLTVVHQDWLNGKEYKCKVSNKGLPAPIEKTISKTKGQPREPQVYTLPPSREEMTKNQVSLTCLVKGFYPSDIAVEWESNGQPENNYKTTPPMLDSDGSFFLYSKLTVDKSRWQQGNVFSCSVMHEALHNHYTQKSLSLSPGK
light: EIVLTQSPGTLSLSPGERATLSCRASQSVSGDYLAWYQQKLGQAPRLLIYGASIRATGIPDRFSGSGSGTDFTLTISKLEPEDFAVYYCQQYGSSPLTFGGGTKVEIKRTVAAPSVFIFPPSDEQLKSGTASVVCLLNNFYPREAKVQWKVDNALQSGNSQESVTEQDSKDSTYSLSSTLTLSKADYEKHKVYACEVTHQGLSSPVTKSFNRGEC
notes: also called WTIgG2
RIIB/RIIAR (FcγRIIB [1]): 0.34 ratio
Absorbance value (FcγRI): 0.08 A650
Relative binding affinity RI/G1 (FcγRI): 0.03 ratio
Absorbance value (FcγRIIIA^158V): 0.05 A650
Relative binding affinity RIIIAV/G1 (FcγRIIIA^158V): 0.06 ratio
Absorbance value (FcγRIIA^131H): 0.49 A650
Relative binding affinity RIIAH/G1 (FcγRIIA^131H): 0.85 ratio
Absorbance value (FcγRIIIA^158F): 0.06 A650
Relative binding affinity RIIIAF/G1 (FcγRIIIA^158F): 0.3 ratio
Absorbance value (FcγRIIB [2]): 0.08 A650
Increased factor of RIIB binding compared with wild-type IgG2 (FcγRIIB [2]): 1 fold
Relative binding affinity RIIB/G1 (FcγRIIB [2]): 0.1 ratio
Absorbance value (FcγRIIA^131R (human)): 0.08 A650
Relative binding affinity RIIAR/G1 (FcγRIIA^131R (human)): 0.29

B2: anti-human OX40 IgG2 antibody Mut_26 (V234Q/A235G/P238L/S239V/S267E/H268S/E269D) (antibody)
heavy: B1 heavy with V232Q, A233G, P235L, S236V, S264E, H265S, E266D
light: B1 light
notes: Substitutions in Eu numbering; entries include an unstated signal peptide
RIIB/RIIAR (FcγRIIB [1]): 2.24 ratio
Absorbance value (FcγRI): 0.19 A650
Relative binding affinity RI/G1 (FcγRI): 0.07 ratio
Absorbance value (FcγRIIIA^158V): 0.09 A650
Relative binding affinity RIIIAV/G1 (FcγRIIIA^158V): 0.09 ratio
Absorbance value (FcγRIIA^131H): 0.06 A650
Relative binding affinity RIIAH/G1 (FcγRIIA^131H): 0.11 ratio
Absorbance value (FcγRIIIA^158F): 0.08 A650
Relative binding affinity RIIIAF/G1 (FcγRIIIA^158F): 0.41 ratio
Absorbance value (FcγRIIB [2]): 0.55 A650
Increased factor of RIIB binding compared with wild-type IgG2 (FcγRIIB [2]): 7.28 fold
Relative binding affinity RIIB/G1 (FcγRIIB [2]): 0.72 ratio
Absorbance value (FcγRIIA^131R (human)): 0.08 A650
Relative binding affinity RIIAR/G1 (FcγRIIA^131R (human)): 0.32

B3: human IgG2 anti-mouse CD40 surface displayed antibody, Fc mutant G327L (antibody, name in EU numbering)
light chain (with the P2A rest): DTVLTQSPALAVSPGERVTISCRASDSVSTLMHWYQQKPGQQPKLLIYLASHLESGVPARFSGSGSGTDFTLTIDPVEADDTATYYCQQSWNDPWTFGGGTKLELKRTVAAPSVFIFPPSDEQLKSGTASVVCLLNNFYPREAKVQWKVDNALQSGNSQESVTEQDSKDSTYSLSSTLTLSKADYEKHKVYACEVTHQGLSSPVTKSFNRGECGSGATNFSLLKQAGDVEENPG
heavy chain: EVQLVESDGGLVQPGRSLKLPCAASGFTFSDYYMAWVRQAPTKGLEWVASISYDGSSTYYRDSVKGRFTISRDNAKSTLYLQMDSLRSEDTATYYCGRHSSYFDYWGQGVMVTVSSASTKGPSVFPLAPCSRSTSESTAALGCLVKDYFPEPVTVSWNSGALTSGVHTFPAVLQSSGLYSLSSVVTVPSSNFGTQTYTCNVDHKPSNTKVDKTVERKCCVECPPCPAPPVAGPSVFLFPPKPKDTLMISRTPEVTCVVVDVSHEDPEVQFNWYVDGVEVHNAKTKPREEQFNSTFRVVSVLTVVHQDWLNGKEYKCKVSNKLLPAPIEKTISKTKGQPREPQVYTLPPSREEMTKNQVSLTCLVKGFYPSDIAVEWESNGQPENNYKTTPPMLDSDGSFFLYSKLTVDKSRWQQGNVFSCSVMHEALHNHYTQKSLSLSPGKLEPPPSTVSNMATVAVLVVLGAAIVTGAVVAFVMKMRRRNTGGKGGDYALAPGSQTSDLSLPDCKVMVHDPHSLA
notes: as m1; positions are Eu numbers; copies: 2 + 2
Enrichment factor (percentage after sorting/percentage before sorting) (Biotin-FcγRIIB [3]): 3.77
Increased factor (mutation enrichment factor/wild-type enrichment factor) (Biotin-FcγRIIB [3]): 4.28
Percentage after sorting/unbinding percentage (Biotin-FcγRIIB [3]): 3.8
Percentage before sorting/unbinding percentage (Biotin-FcγRIIB [3]): 1.01

B4: human IgG2 anti-mouse CD40 surface displayed antibody, Fc mutant L328N (antibody, name in EU numbering)
light chain (with the P2A rest): B3 light chain (with the P2A rest)
heavy chain: B3 heavy chain with L322G, L323N
notes: as for B3
Enrichment factor (percentage after sorting/percentage before sorting) (Biotin-FcγRIIB [3]): 2.73
Increased factor (mutation enrichment factor/wild-type enrichment factor) (Biotin-FcγRIIB [3]): 3.11
Percentage after sorting/unbinding percentage (Biotin-FcγRIIB [3]): 50.9
Percentage before sorting/unbinding percentage (Biotin-FcγRIIB [3]): 18.6

B5: human IgG2 anti-mouse CD40 surface displayed antibody, Fc mutant S267E/P271V (antibody, name in EU numbering)
light chain (with the P2A rest): B3 light chain (with the P2A rest)
heavy chain: B3 heavy chain with S262E, P266V, L322G
notes: as for B3
Increased factor 2 c Site 1 (combined/point mutation) (Biotin-FcγRIIB [4]): 1.4
Enrichment factor (after/before sorting) (Biotin-FcγRIIB [5]): 22.1
Increased factor a (enrichment factor/wild-type enrichment factor) (Biotin-FcγRIIB [5]): 38.4

B6: human IgG2 anti-mouse CD40 surface displayed antibody, Fc mutant S267E/P271W (antibody, name in EU numbering)
light chain (with the P2A rest): B3 light chain (with the P2A rest)
heavy chain: B3 heavy chain with S262E, P266W, L322G
notes: as for B3
Increased factor 2 c Site 1 (combined/point mutation) (Biotin-FcγRIIB [4]): 1.5
Enrichment factor (after/before sorting) (Biotin-FcγRIIB [5]): 24
Increased factor a (enrichment factor/wild-type enrichment factor) (Biotin-FcγRIIB [5]): 41.8

B7: human IgG2 anti-mouse CD40 surface displayed antibody, Fc mutant S267E/D270H (antibody, name in EU numbering)
light chain (with the P2A rest): B3 light chain (with the P2A rest)
heavy chain: B3 heavy chain with S262E, D265H, L322G
notes: as for B3
Increased factor 2 c Site 1 (combined/point mutation) (Biotin-FcγRIIB [4]): 2.6
Enrichment factor (after/before sorting) (Biotin-FcγRIIB [5]): 42.7
Increased factor a (enrichment factor/wild-type enrichment factor) (Biotin-FcγRIIB [5]): 74.3

B8: human IgG2 anti-mouse CD40 surface displayed antibody, Fc mutant S267E/P271Y (antibody, name in EU numbering)
light chain (with the P2A rest): B3 light chain (with the P2A rest)
heavy chain: B3 heavy chain with S262E, P266Y, L322G
notes: as for B3
Increased factor 2 c Site 1 (combined/point mutation) (Biotin-FcγRIIB [4]): 1.2
Enrichment factor (after/before sorting) (Biotin-FcγRIIB [5]): 19.2
Increased factor a (enrichment factor/wild-type enrichment factor) (Biotin-FcγRIIB [5]): 33.4

B9: human IgG2 anti-mouse CD40 surface displayed antibody, Fc mutant G327S (antibody, name in EU numbering)
light chain (with the P2A rest): B3 light chain (with the P2A rest)
heavy chain: B3 heavy chain with L322S
notes: as for B3
Enrichment factor (percentage after sorting/percentage before sorting) (Biotin-FcγRIIB [3]): 6.9
Increased factor (mutation enrichment factor/wild-type enrichment factor) (Biotin-FcγRIIB [3]): 7.84
Percentage after sorting/unbinding percentage (Biotin-FcγRIIB [3]): 71.2
Percentage before sorting/unbinding percentage (Biotin-FcγRIIB [3]): 10.3
